Results reported in patent US20260234232A1 (QUAERITE BIOPHARM RESEARCH BEIJING, published 2026).
Like-named read-outs stand apart in the source and are kept apart here.

Key:
human VEGFA165 [1] = biological target: T1, human VEGFA165 (human, UniProt P15692-4 27-191); assay: ELISA, coated human VEGFA165, anti-His detection
T1 construct: Bought protein from two suppliers, treated as one molecule; the supplier is named under assay; also called antigen VEGFA
Description: (§1) Antigen human VEGFA165 (label-free, purchased from Sino Biological, Cat. No.: HPLC-10008-HNAH, hereinafter referred to as VEGFA) was diluted with ELISA coating buffer to a final concentration of 0.3 μg/mL and added to a microplate at 100 μL/well for coating at 4° C. overnight. […] The solution used for antibody dilution was PBS containing 0.1% Tween-20 (pH 7.4), i.e., PBST. After being incubated at 37° C. for 1 h, the microplate was washed 3 times with PBST, and a dilution of His-Tag murine monoclonal antibody (purchased from Proteintech, Cat. No.: 66005-1-Ig) was added. The plate was further incubated at 37° C. for 1 h and washed again. Subsequently, a dilution of HRP-labeled goat anti-mouse IgG antibody (HRP-conjugated Affinipure Goat Anti-Mouse IgG (H+L), purchased from Proteintech, Cat. No.: SA00001-1) was added, and the plate was incubated at room temperature for 45 min. After the plate was washed, 100 μL of TMB (purchased from Tiangen Biotech, Cat. No.: PA107-01) was added to each well for color development at 37° C. for 15 min, followed by the addition of 50 μL of stopping solution. The absorbance at 450 nm (OD450) was measured using a microplate reader.
The experimental procedure was the same as that described in “2.

human VEGFA165 [2] = biological target: T1, human VEGFA165; assay: competitive ELISA, coated VEGFA, competitor VEGFR2-ECD-Fc 1 nM
Description: (§2) Antigen VEGFA was diluted with ELISA coating buffer (final concentration of […]) and added to a 96-well microplate at 100 μL/well for coating at 4° C. overnight. […] The plate was incubated at 37° C. for 1 h and washed 3 times with PBST. Subsequently, a dilution of HRP-labeled goat anti-human IgG antibody (HRP-conjugated Goat Anti-Human IgG, purchased from Proteintech, Cat. No.: A21050) was added, and the plate was further incubated at room temperature for 45 min. After the plate was washed, 100 μL of TMB (purchased from Tiangen Biotech, Cat. No.: PA107-01) was added to each well for color development at 37° C. for 15 min, followed by the addition of 50 μL of stopping solution. The absorbance at 450 nm (OD450) was measured using a microplate reader.

human VEGFA165 [3] = biological target: T1, human VEGFA165; assay: SPR Biacore 8K, VEGFA165 on CM5, nanobody analyte, 1:1 fit
Description: Using the Biacore 8K instrument (Cytiva), the antigen VEGFA165 (label-free, purchased from Sino Biological, Cat. No.: HPLC-10008-HNAH) as the ligand was coupled onto a CM5 chip through amino-coupling reagents (EDC and NHS), with the coupling level being about 400 RU. The mobile phase buffer was HBS-EP (0.01 M HEPES pH 7.4, 0.15 M NaCl, 3 mM EDTA, 0.005% v/v Tween 20) during the experiment. […] In the kinetic analysis, the binding time between the antigen and the antibody was 240 s, the dissociation time was 1500 s, and the flow rate was 30 μL/min. In a multi-cycle mode, the chip was regenerated with 100 mM hydrochloric acid.

human VEGFA165 [4] = biological target: T1, human VEGFA165; assay: ELISA, coated human VEGFA165, anti-His detection; remark: listed apart in the source
Description: as §1

human VEGFA165 [5] = biological target: T1, human VEGFA165; assay: competitive ELISA, coated VEGFA, competitor VEGFR2-ECD-Fc 1 nM; remark: listed apart in the source
Description: as §2

human VEGFA165 [6] = biological target: T1, human VEGFA165; assay: ELISA, coated human VEGFA165, anti-His detection; remark: listed apart in the source
Description: as §1

human VEGFA165 [7] = biological target: T1, human VEGFA165; assay: competitive ELISA, coated VEGFA, competitor VEGFR2-ECD-Fc 1 nM; remark: listed apart in the source
human VEGFA165 [8] = biological target: T1, human VEGFA165; assay: ELISA, coated human VEGFA165, anti-His detection; remark: listed apart in the source
Description: as §1

T1 sequence (P15692 other isoform, or with tags, fused parts or gaps limits assumed): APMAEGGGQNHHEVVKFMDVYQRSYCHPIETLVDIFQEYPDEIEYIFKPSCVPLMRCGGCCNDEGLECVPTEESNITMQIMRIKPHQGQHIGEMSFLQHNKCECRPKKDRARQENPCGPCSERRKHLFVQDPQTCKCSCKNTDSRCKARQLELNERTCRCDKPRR

EC50 (human VEGFA165 [1]) [pM]	IC50 (human VEGFA165 [2]) [pM]	Kd (human VEGFA165 [3]) [pM]	koff (human VEGFA165 [3]) [s⁻¹]	kon (human VEGFA165 [3]) [M⁻¹ s⁻¹]	EC50 (human VEGFA165 [4]) [pM]	IC50 (human VEGFA165 [5]) [pM]	EC50 (human VEGFA165 [6]) [pM]	IC50 (human VEGFA165 [7]) [pM]	Maximum inhibition rate (%) (human VEGFA165 [7])	EC50 (human VEGFA165 [8]) [pM]	Binder
1000	6650										V15 (VHH, Monovalent nanobody; tag not described here, the ELISA detects a His tag) VHH: QLQLVESGGGSVQPGGSLRLSCEVSGRTFASYTMGWFRQAPGKEREFVVAISKGGYKYDSVSLEARFTISKDNTKNTVYLQMNSLKPEDTAVYYCAGTRAYGSSRLRLAETYEYWGQGTQVTVSS
90		22.4	5.05e-05	2.25e+06	90	2970					2V1-9GS (VHH, Tandem bivalent nanobody) QLQLVESGGGSVQPGGSLRLSCEVSGRTFSSYTMGWFRQAPGKEREFVVAISKGGYKYDSVSLEARFTISKDNTKNTVYLQMNSLKPEDTAVYYCAATRAYGSSRLRLADTYEYWGQGTQVTVSSGGGGSGGGSQLQLVESGGGSVQPGGSLRLSCEVSGRTFSSYTMGWFRQAPGKEREFVVAISKGGYKYDSVSLEARFTISKDNTKNTVYLQMNSLKPEDTAVYYCAATRAYGSSRLRLADTYEYWGQGTQVTVSS
240	3610				240	2070	250	3130	88.4	220	2V15-9GS (VHH, Tandem bivalent nanobody) QLQLVESGGGSVQPGGSLRLSCEVSGRTFASYTMGWFRQAPGKEREFVVAISKGGYKYDSVSLEARFTISKDNTKNTVYLQMNSLKPEDTAVYYCAGTRAYGSSRLRLAETYEYWGQGTQVTVSSGGGGSGGGSQLQLVESGGGSVQPGGSLRLSCEVSGRTFASYTMGWFRQAPGKEREFVVAISKGGYKYDSVSLEARFTISKDNTKNTVYLQMNSLKPEDTAVYYCAGTRAYGSSRLRLAETYEYWGQGTQVTVSS
